This is an account of results in patent US20260193326A1 (published 2026).

Substitutions are numbered along the chain they refer to.

Test in all cases: SPR, AAV on CM5 chip;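 further: surface plasmon resonance with AAV amine-coupled to the chip as ligand, nanobodies injected as analyte over a concentration series, rate constants and affinity fitted from binding curves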
On the technique in general: SPR reads the build-up and loss of mass on a sensor chip optically.

One test concerns the target T1, AAV8.
T1 construct: also called adeno-associated virus serotype 8

Another test deals with T2, AAV5.
T2 construct: also called adeno-associated virus serotype 5

A further test deals with T3, AAV9.
T3 construct: also called adeno-associated virus serotype 9

Procedure for AAV5: (§1) AAV was amine-coupled to a CM5 sensor chip at a density of 500-800 response units (RU). Nanobodies were injected at seven concentrations (1-100 nM) with a flow rate of 45 μL/min, and chip regeneration was performed using glycine-HCl (pH 1.5). Binding curves at different nanobody concentrations were used to calculate kinetic parameters (Kₐ, Kd, KD) (Table 2 and FIG. 2).
Procedure for AAV8: as §1
Procedure for AAV9: as §1

B1: A4-047 (VHH)
VHH: VQLQESGGGLVQPGGSLRLSCAASGSRFSINTMGWYRQAPGKQRELVATVTRGGSTNYAGSVKGRFTISRDNAKNTVYLQMNSLRPEDTAVYYCHVDEVRQSSWTTSNLWGQGTQVTVSS
What is called Kd is a measure of binding affinity in units of concentration. A lower Kd goes with higher affinity. What is called koff is the first-order rate constant of dissociation. A higher koff goes with a short-lived complex. Usually kon stands for the second-order rate constant of association. Low readings indicate slow association, high ones fast association. B1: the Kd amounted to 0.104 nM with AAV8, 7.79 nM with AAV5 and 29.1 nM with AAV9. In addition, the off-rate (koff) with AAV8 worked out at 2e-05 s⁻¹; with AAV5 it was 0.00144 s⁻¹; with AAV9 it was 0.00147 s⁻¹. Also, the on-rate (kon) came out at 193000 M⁻¹ s⁻¹ with AAV8, 185000 M⁻¹ s⁻¹ in the test with AAV5 and 50500 M⁻¹ s⁻¹ with AAV9.

B2: A4-002 (VHH)
VHH: B1 VHH with S26R, R27S, T49A, V96I, L109I
For B2, in the test with AAV8, binding was characterised by a dissociation constant (Kd) of 57.7 nM, the koff worked out at 0.00618 s⁻¹ and the kon came to 107000 M⁻¹ s⁻¹. In the test with AAV5, this molecule came in with a Kd of 138 nM, a koff of 0.00063 s⁻¹ and an association rate constant (kon) of 4570 M⁻¹ s⁻¹. In the test with AAV9, this molecule had a Kd of 232 nM, a koff of 0.011 s⁻¹ and a kon of 47500 M⁻¹ s⁻¹.

B3: A4-009 (VHH)
VHH: B1 VHH with V11A, L46F, T49A, S83T, L109I
In the case of B3, in the test with AAV8, the dissociation constant Kd stood at 103 nM, the koff amounted to 0.00219 s⁻¹ and the kon was 21400 M⁻¹ s⁻¹. In the test with AAV5, this molecule displayed a Kd of 141 nM, a koff of 0.00698 s⁻¹ and a kon of 49700 M⁻¹ s⁻¹. In addition, in the test with AAV9, the Kd amounted to 100 nM, the koff was 0.0139 s⁻¹ and the kon stood at 139000 M⁻¹ s⁻¹.

B4: A4-003 (VHH)
VHH: B1 VHH with A22V, S26R, R27S, T49A, V96I, L109I
In the test with AAV8, B4 came in with a Kd of 1.2 nM, a koff of 0.000277 s⁻¹ and a kon of 232000 M⁻¹ s⁻¹. In the test with AAV5, the Kd came out at 8.24 nM, the koff was 0.00019 s⁻¹ and the kon was 23100 M⁻¹ s⁻¹. Also, in the test with AAV9, the Kd was determined as 184 nM, the koff is 0.00152 s⁻¹ and the kon is 8240 M⁻¹ s⁻¹.

B5: A4-005 (VHH)
VHH: B1 VHH with P13A, S26R, R27H, T49A, S55G, V96I, L109I
Take B5: the Kd with AAV8 turned out to be 4.39 nM; with AAV5 it was 1860 nM; with AAV9, 88.5 nM. The koff was 0.00197 s⁻¹ in the test with AAV8, 0.00193 s⁻¹ with AAV5 and 0.021 s⁻¹ in the test with AAV9. Also, the kon was found to be 449000 M⁻¹ s⁻¹ with AAV8 and 237000 M⁻¹ s⁻¹ in the test with AAV9.

B6: A4-015 (VHH)
VHH: B1 VHH with R27I, T32L, P40A, V50I, R52P, S55N
In the test with AAV8, B6 had an equilibrium dissociation constant (Kd) of 9.74 nM, a koff of 0.0017 s⁻¹ and a kon of 174000 M⁻¹ s⁻¹. Besides, in the test with AAV5, binding was put at a Kd of 2.76 nM, the koff was determined as 0.00052 s⁻¹ and the kon was determined as 189000 M⁻¹ s⁻¹. Besides, in the test with AAV9, the Kd stood at 3.39 nM, the koff was found to be 0.00017 s⁻¹ and the association rate constant (kon) turned out to be 50100 M⁻¹ s⁻¹.

B7: A4-013 (VHH)
VHH: B1 VHH with T32S, S55N, G60D, Q101E
As for B7, the Kd with AAV8 was determined as 1220 nM; with AAV5, 7.24 nM; with AAV9 it was 480 nM. Besides, the koff with AAV8 came to 0.00737 s⁻¹; with AAV5 it was 0.00011 s⁻¹; with AAV9, 0.0379 s⁻¹. For the same molecule, the kon with AAV8 turned out to be 6060 M⁻¹ s⁻¹; with AAV5 it was 15200 M⁻¹ s⁻¹; with AAV9 it was 79100 M⁻¹ s⁻¹.

B8: A4-014 (VHH)
VHH: B1 VHH with T32S, S55N, Q101E
As for B8, the Kd with AAV8 stood at 384 nM; with AAV5, 597 nM; in the test with AAV9 it was 13.3 nM. In addition, the koff in the test with AAV8 is 0.00109 s⁻¹; in the test with AAV5, 0.00529 s⁻¹; with AAV9, 0.00085 s⁻¹. The kon in the test with AAV8 was found to be 2840 M⁻¹ s⁻¹; in the test with AAV5, 8860 M⁻¹ s⁻¹; in the test with AAV9 it was 64000 M⁻¹ s⁻¹.

B9: A4-007 (VHH)
VHH: B1 VHH with P13A, S26R, R27H, T49A, V96I, L109I
In the test with AAV8, B9 displayed a dissociation constant (Kd) of 47.4 nM, a koff of 0.00367 s⁻¹ and a kon of 77300 M⁻¹ s⁻¹. Moreover, in the test with AAV5, binding was put at a Kd of 1260 nM, the koff was found to be 0.0248 s⁻¹ and the kon stood at 19700 M⁻¹ s⁻¹. In the test with AAV9, this molecule showed a Kd of 6.43 nM, a koff of 0.00089 s⁻¹ and a kon of 138000 M⁻¹ s⁻¹.

B10: A4-017 (VHH)
VHH: B1 VHH with R27I, T32L, V50I, S55N
As to B10, in the test with AAV8, the dissociation constant Kd turned out to be 140 nM, the dissociation rate constant (koff) came to 0.0002 s⁻¹ and the kon worked out at 1430 M⁻¹ s⁻¹. Also, in the test with AAV5, the affinity, expressed as Kd, was 542 nM; the koff was 0.00164 s⁻¹; the kon was determined as 3030 M⁻¹ s⁻¹. In the test with AAV9, this molecule came in with a Kd of 0.724 nM, a koff of 4e-05 s⁻¹ and a kon of 55300 M⁻¹ s⁻¹.

B11: A4-006 (VHH)
VHH: B1 VHH with S26R, R27H, T49A, V96I, L109I
Regarding B11, in the test with AAV8, binding was characterised by a dissociation constant (Kd) of 5.87 nM, the koff is 0.00224 s⁻¹ and the kon amounted to 381000 M⁻¹ s⁻¹. Moreover, in the test with AAV5, the Kd amounted to 1.78 nM, the koff is 0.00032 s⁻¹ and the association rate constant (kon) came out at 179000 M⁻¹ s⁻¹. Besides, in the test with AAV9, the Kd is 192 nM, the koff amounted to 0.0244 s⁻¹ and the kon amounted to 127000 M⁻¹ s⁻¹.

B12: A4-004 (VHH)
VHH: B1 VHH with T49A, V96I, L109I
For the molecule B12, the Kd with AAV8 amounted to 1.71 nM; in the test with AAV5, 37.5 nM; in the test with AAV9 it was 4.51 nM. Also, the koff is 0.000286 s⁻¹ in the test with AAV8, 0.00678 s⁻¹ with AAV5 and 0.00081 s⁻¹ with AAV9. The kon with AAV8 was 167000 M⁻¹ s⁻¹; with AAV5 it was 181000 M⁻¹ s⁻¹; with AAV9, 180000 M⁻¹ s⁻¹.

B13: A4-016 (VHH)
VHH: B1 VHH with R27I, T32L, V50I, R52P, S55N
Regarding B13, in the test with AAV8, the Kd was found to be 9.58 nM, the koff turned out to be 0.00146 s⁻¹ and the kon worked out at 152000 M⁻¹ s⁻¹. In the test with AAV5, the equilibrium dissociation constant (Kd) was found to be 23.9 nM, the koff worked out at 0.00158 s⁻¹ and the kon stood at 66000 M⁻¹ s⁻¹. In the test with AAV9, this molecule gave a Kd of 131 nM, a koff of 0.00047 s⁻¹ and a kon of 3600 M⁻¹ s⁻¹.

B14: A4-008 (VHH)
VHH: B1 VHH with P13A, S26R, R27A, G41P, V77I, L109I
As for B14, in the test with AAV8, the Kd is 523 nM, the koff amounted to 0.00164 s⁻¹ and the kon was 3140 M⁻¹ s⁻¹. In the test with AAV5, this molecule showed a Kd of 66 nM, a koff of 0.0174 s⁻¹ and a kon of 264000 M⁻¹ s⁻¹. Further, in the test with AAV9, the Kd came to 14.5 nM, the koff amounted to 0.00012 s⁻¹ and the on-rate constant (kon) was determined as 8270 M⁻¹ s⁻¹.

B15: A4-010 (VHH)
VHH: B1 VHH with P13A, R27I, T32S, S55N, G60D, Q101E
As for B15, in the test with AAV8, the Kd amounted to 169 nM, the koff came to 0.00249 s⁻¹ and the kon amounted to 14700 M⁻¹ s⁻¹. For the same molecule, in the test with AAV5, the Kd was 267 nM, the off-rate constant (koff) amounted to 0.00038 s⁻¹ and the kon came out at 1420 M⁻¹ s⁻¹. In the test with AAV9, this molecule displayed a Kd of 380 nM, a koff of 0.0329 s⁻¹ and a kon of 86600 M⁻¹ s⁻¹.
